What was measured:
[1] = target: T1, MRAS(1–178)–Avi, biotinylated, wild type (human, UniProt O14807 1-178, biotin on the Avi tag); experiment: SPR; +PP1Cα
T1 chain: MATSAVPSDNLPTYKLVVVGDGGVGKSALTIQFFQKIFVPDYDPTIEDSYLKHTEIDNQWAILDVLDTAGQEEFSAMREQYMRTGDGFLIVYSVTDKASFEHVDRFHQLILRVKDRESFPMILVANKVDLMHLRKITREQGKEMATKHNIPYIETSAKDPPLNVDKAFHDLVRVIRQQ

[2] = target: T1, MRAS(1–178)–Avi, biotinylated, wild type; experiment: SPR; +PP1Cα(P50R)

Kd [1]: 86.3 nM
Kd [2]: 34.8 nM
B1: SHOC2 (residues 80–582, LRR domain), wild type (domain or fragment)
chain: GTRKKSSNAEVIKELNKCREENSMRLDLSKRSIHILPSSIKELTQLTELYLYSNKLQSLPAEVGCLVNLMTLALSENSLTSLPDSLDNLKKLRMLDLRHNKLREIPSVVYRLDSLTTLYLRFNRITTVEKDIKNLSKLSMLSIRENKIKQLPAEIGELCNLITLDVAHNQLEHLPKEIGNCTQITNLDLQHNELLDLPDTIGNLSSLSRLGLRYNRLSAIPRSLAKCSALEELNLENNNISTLPESLLSSLVKLNSLTLARNCFQLYPVGGPSQFSTIYSLNMEHNRINKIPFGIFSRAKVLSKLNMKDNQLTSLPLDFGTWTSMVELNLATNQLTKIPEDVSGLVSLEVLILSNNLLKKLPHGLGNLRKLRELDLEENKLESLPNEIAYLKDLQKLVLTNNQLTTLPRGIGHLTNLTHLGLGENLLTHLPEEIGTLENLEELYLNDNPNLHSLPFELALCSKLSIMSIENCPLSHLPPQIVAGGPSFIIQFLKMQGPYRAMV

— paper PMC9452295 (2022)
